Experimental findings from patent publication US20180188257A1 (UNIVERSITY OF ROCHESTER, published 2018) are described below.

The target of one experiment is T1, p53 (UniProt P04637 1-393, limits assumed).
T1 construct: Endogenous protein in cell lysates
The experiment in a line: co-immunoprecipitation from cell lysate with septin-2 pull-down antibody, western blot. On the procedure:
(§1) For immunoprecipitation studies, two million SKOV3 WT and OVCAR-8 cells were seeded onto 100 mm dishes (Corning) and cultured to 80% confluency in complete DMEM media. Cells were rinsed in DPBS (Gibco), lysed, and quantified using Bradford assay. Lysates were adjusted to 1 μg/μl total protein concentration, with 500 μl lysate used for each IP reaction. Identical samples were prepared for pull-down antibody (Septin-2 or HE4) and isotype-matched IgG control (#3900, Cell Signaling), with antibody concentration identical at 40 ng/μl. Further processing and PAGE analysis of samples was conducted to resolve the bands. The resulting membranes were probed for HE4 or Septin-2, p21 or P53, B-tubulin and other proteins of interest.

A further experiment addresses T2, β-tubulin (UniProt P07437 1-444).
T2 construct: Endogenous protein in cell lysates; also called B-tubulin
The experiment is described as above. On the procedure:
as §1

T1 sequence (P04637 whole entry): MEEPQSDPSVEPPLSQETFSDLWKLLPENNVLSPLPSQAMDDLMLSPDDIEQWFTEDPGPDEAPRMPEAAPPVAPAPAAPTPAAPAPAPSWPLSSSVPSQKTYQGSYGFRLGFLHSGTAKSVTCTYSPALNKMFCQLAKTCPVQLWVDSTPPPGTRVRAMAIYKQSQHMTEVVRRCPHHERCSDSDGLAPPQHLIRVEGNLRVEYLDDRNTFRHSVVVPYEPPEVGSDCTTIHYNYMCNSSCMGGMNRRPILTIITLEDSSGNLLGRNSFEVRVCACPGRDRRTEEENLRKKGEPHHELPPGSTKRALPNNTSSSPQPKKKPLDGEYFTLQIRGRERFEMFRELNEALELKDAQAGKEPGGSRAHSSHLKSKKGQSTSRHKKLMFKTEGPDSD
T2 sequence (P07437 whole entry): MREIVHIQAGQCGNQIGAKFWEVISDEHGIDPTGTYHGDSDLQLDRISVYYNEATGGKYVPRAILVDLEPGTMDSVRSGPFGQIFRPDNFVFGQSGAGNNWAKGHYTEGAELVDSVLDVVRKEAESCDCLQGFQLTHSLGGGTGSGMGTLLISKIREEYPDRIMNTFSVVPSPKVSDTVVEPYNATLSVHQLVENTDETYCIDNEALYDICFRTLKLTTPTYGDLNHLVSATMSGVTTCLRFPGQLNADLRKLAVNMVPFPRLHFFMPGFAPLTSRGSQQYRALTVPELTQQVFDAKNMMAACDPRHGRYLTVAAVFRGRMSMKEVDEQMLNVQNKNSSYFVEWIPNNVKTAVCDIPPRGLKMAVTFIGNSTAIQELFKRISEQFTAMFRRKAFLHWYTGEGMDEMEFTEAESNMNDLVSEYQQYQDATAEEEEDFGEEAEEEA

B1: septin-2 (other)
chain: MSKQQPTQFINPETPGYVGFANLPNQVHRKSVKKGFEFTLMVVGESGLGKSTLINSLFLTDLYPERVIPGAAEKIERTVQIEASTVEIEERGVKLRLTVVDTPGYGDAINCRDCFKTIISYIDEQFERYLHDESGLNRRHIIDNRVHCCFYFISPFGHGLKPLDVAFMKAIHNKVNIVPVIAKADTLTLKERERLKKRILDEIEEHNIKIYHLPDAESDEDEDFKEQTRLLKASIPFSVVGSNQLIEAKGKKVRGRLYPWGVVEVENPEHNDFLKLRTMLITHMQDLQEVTQDLHYENFRSERLKRGGRKVENEDMNKDQILLEKEAELRRMQEMIARMQAQMQMQMQGGDGDGGALGHHV
notes: Endogenous protein in lysates of the ovarian cancer cell lines SKOV3 WT and OVCAR-8, pulled down with a septin-2 antibody
As for B1, the binding result in the experiment with p53 and in the experiment with β-tubulin was “no binding” throughout.
